This note sets out measurements from paper doi:10.1101/2020.02.21.958371.

Common to all, as to experiment: MST
One data set addresses T1, RMB1 MBD (Arabidopsis thaliana, UniProt F4I209 1-81).
T1 sequence: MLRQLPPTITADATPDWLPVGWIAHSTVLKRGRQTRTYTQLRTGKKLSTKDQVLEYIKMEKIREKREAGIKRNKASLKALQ

In another data set the target is T2, RMB1 MBD W22G (Arabidopsis thaliana, UniProt F4I209 1-81, W22G).
T2 sequence: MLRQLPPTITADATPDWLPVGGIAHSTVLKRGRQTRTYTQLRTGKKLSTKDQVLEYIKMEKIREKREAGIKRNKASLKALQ

For a further data set, the target named is T3, RMB1 MBD K50T (Arabidopsis thaliana, UniProt F4I209 1-81, K50T).
T3 sequence: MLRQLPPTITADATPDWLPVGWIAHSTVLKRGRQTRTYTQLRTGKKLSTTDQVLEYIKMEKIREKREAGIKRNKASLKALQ

The next data set addresses T4, RMB1 MBD T49A (Arabidopsis thaliana, UniProt F4I209 1-81, T49A).
T4 sequence: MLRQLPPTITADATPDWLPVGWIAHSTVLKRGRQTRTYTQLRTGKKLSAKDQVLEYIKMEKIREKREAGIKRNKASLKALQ

Another data set concerns the target T5, RMB1 MBD Y38F (Arabidopsis thaliana, UniProt F4I209 1-81, Y38F).
T5 sequence: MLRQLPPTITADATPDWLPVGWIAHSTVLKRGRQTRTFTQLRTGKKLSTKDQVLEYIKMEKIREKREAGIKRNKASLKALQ

B1: AT5G39160 mCG (dsDNA)
DNA 1: TTTGGTACGGACTTTTAGTTACAAGAGAGCATTTAAACAAAAATGACCGGTAGATGGAA
DNA 2: TTCCATCTACCGGTCATTTTTGTTTAAATGCTCTCTTGTAACTAAAAGTCCGTACCAAA
modifications: 5mC at forward 8 and 48; reverse strand line not in material, its methylation unknown
Consider B1, for which the Kd with RMB1 MBD stood at 1.77 ± 0.7 µM; in the data set with RMB1 MBD W22G it was 13.3 ± 4.67 µM; in the data set with RMB1 MBD T49A it was 3.58 ± 2.07 µM; with RMB1 MBD Y38F it was 2.15 ± 0.75 µM. The binding result with RMB1 MBD K50T is recorded as “no binding”.

B2: AT5G39160 mCHG (dsDNA)
DNA 1: TTTGGTACGGACTTTTAGTTACAAGAGAGCATTTAAACAAAAATGACCGGTAGATGGAA
DNA 2: TTCCATCTACCGGTCATTTTTGTTTAAATGCTCTCTTGTAACTAAAAGTCCGTACCAAA
modifications: 5mC in CHG context; positions not in material (base sequence taken from Um probe)
Consider B2, for which the Kd with RMB1 MBD was 3.34 ± 0.27 µM; in the data set with RMB1 MBD T49A, 4.11 ± 2.92 µM; with RMB1 MBD Y38F, 5.16 ± 2 µM. In addition, in the data set with RMB1 MBD K50T, the binding result is given as “no binding”.

B3: AT5G39160 mCHH (dsDNA)
DNA 1: TTTGGTACGGACTTTTAGTTACAAGAGAGCATTTAAACAAAAATGACCGGTAGATGGAA
DNA 2: TTCCATCTACCGGTCATTTTTGTTTAAATGCTCTCTTGTAACTAAAAGTCCGTACCAAA
modifications: 5mC at forward 12, 22, 30, 38; reverse unmethylated
In the case of B3, the Kd with RMB1 MBD came out at 2.86 ± 1.21 µM.

As a reminder, the Kd is the free concentration of one partner at which half of the binding sites on the other are occupied at equilibrium, for simple one-to-one binding. A higher Kd goes with a looser complex.
